# Test results from the supplement of paper PMC10567573.
# B1: CAMK2A (parent)
# chain: ILLVGYPPFWDEDQHRLYKQIKAG
# Variants of: B1
# Assay: protein stability index of a GFP-peptide fusion (GPS, HEK-293T) (PSI 1-6); higher = more stable
# Settings: c terminus: a fixed tail appended
# 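Also: lentivirally expressed fusions sorted by FACS into six bins by GFP to DsRed ratio, PSI derived from sequencing read proportions per bin multiplied by bin number.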
row,Variant,protein stability index
1,A23F,2.23
2,A23E,2.26
3,A23G,1.72
4,A23D,1.98
5,K19A,1.65
6,K19Q,2.79
7,K19N,3.09
8,K19G,3.31
9,K19H,1.38
10,K19S,2.63
11,K19D,2.82
12,K19P,1.73
13,K19T,1.72
14,K19F,2.66
15,K19E,1.87
16,K19M,3.5
17,K19V,2.9
18,K19Y,3.14
19,K19I,2.67
20,K19W,2.65
21,K19R,1.36
22,H15S,2.89
23,H15K,1.24
24,H15L,2.16

row,Variant,protein stability index
1,H15G,2.21
2,H15T,2.8
3,H15N,2.2
4,H15E,2.14
5,H15D,2.13
6,H15F,2.5
7,H15A,2.55
8,H15Q,2.51
9,H15I,2.31
10,H15C,3.07
11,H15V,2.84
12,H15P,2.6
13,H15W,2.08
14,Q20T,1.62
15,Q20D,1.9
16,Q20N,1.83
17,Q20C,1.94
18,Q20F,2.69
19,Q20H,2.86
20,Q20S,1.86
21,Q20L,2.6
22,Q20M,2.36
23,Q20E,2.18
24,Q20I,1.96

row,Variant,protein stability index
1,Q20G,2.1
2,Q20K,1.56
3,Q20W,2.02
4,Q20V,3.11
5,Q20P,1.39
6,Q20A,1.78
7,Q20R,2
8,R16Y,3.24
9,R16P,1.54
10,R16K,1.57
11,R16S,2.5
12,R16L,2.27
13,R16G,1.64
14,R16T,1.29
15,R16M,2.07
16,R16D,2.63
17,R16F,2.2
18,R16C,2.16
19,R16V,2.67
20,R16A,2.61
21,R16W,1.62
22,R16N,2.27
23,R16H,2.12
24,R16E,2.2

row,Variant,protein stability index
1,R16I,1.62
2,R16Q,1.84
3,K22H,1.52
4,K22S,3.22
5,K22I,2.55
6,K22W,2.2
7,K22E,1.96
8,K22N,2.6
9,K22R,1.91
10,K22M,2.6
11,K22F,2.94
12,K22T,2.52
13,K22Q,3.46
14,K22P,2.74
15,K22G,1.63
16,K22Y,2.43
17,K22A,2.87
18,K22V,2.15
19,K22C,2.31
20,K22D,1.97
21,D13V,2.54
22,Q14N,2.33
23,Q14S,2.59
24,Q14H,2.67

row,Variant,protein stability index
1,Q14K,1.68
2,Q14G,3.47
3,Q14R,2.78
4,Q14W,1.57
5,Q14E,2.01
6,Q14V,2.89
7,Q14T,2.98
8,Q14D,2.32
9,Q14Y,2.54
10,Q14A,2.65
11,Q14I,2.05
12,Q14L,2.35
13,Q14P,3.6
14,Q14F,2.52
15,I21Y,1.84
16,I21R,2.05
17,I21L,2.31
18,I21S,1.82
19,I21K,1.65
20,I21E,1.92
21,I21Q,2.28
22,I21F,3.06
23,I21M,1.72
24,I21P,1.42

row,Variant,protein stability index
1,I21N,2.19
2,I21H,1.47
3,I21G,1.54
4,I21C,2.35
5,I21W,2.4
6,I21V,1.89
7,I21D,1.99
8,I21T,1.73
9,I21A,1.79
10,Y18K,2.31
11,Y18E,2.38
12,Y18C,1.73
13,Y18A,2.09
14,Y18G,2.79
15,Y18D,1.97
16,Y18I,2.21
17,Y18P,1.71
18,Y18S,1.95
19,Y18L,2.48
20,Y18Q,1.51
21,Y18T,3.2
22,Y18H,1.89
23,Y18V,1.25
24,Y18R,2.45

row,Variant,protein stability index
1,Y18N,2.05
2,Y18W,2.45
3,Y18M,2.16
4,Y18F,1.4
5,L17Q,2.3
6,L17N,1.31
7,L17W,2.09
8,L17S,1.8
9,L17M,2.47
10,L17P,2.03
11,L17F,2.12
12,L17V,2.21
13,L17T,2.14
14,L17E,2.09
15,L17R,2.12
16,L17H,1.75
17,L17K,1.74
18,L17A,1.62
19,L17G,1.58
20,L17C,1.19
21,L17Y,2.38
22,L17D,2.06
23,L17I,2.1
